Test results: patent publication US20040172686A1

Target: yeast APC (anaphase promoting complex of Schizosaccharomyces pombe)
Experiment: cell-based or functional assay

Work on “HOBBIT (HBT) protein of Arabidopsis thaliana (from UniProt Q8LGU6 1-744)” yielded a growth (optical density) of S. pombe nuc2ts at restrictive temperature, HBT cDNA against empty vector control of 4 fold.
